Laboratory results reported in PMC3236778.

Assays:
[1] = target: GkDnaC helicase, wild-type (replicative helicase of Geobacillus kaustophilus HTA426) (Geobacillus kaustophilus HTA426)
[2] = target: GkDnaC K309A mutant (Geobacillus kaustophilus HTA426); assay: SEC; size-exclusion column during purification; data not shown
[3] = target: GkDnaC R420A mutant (arginine finger) (Geobacillus kaustophilus HTA426); assay: as above
[4] = target: GkDnaC helicase, wild-type (replicative helicase of Geobacillus kaustophilus HTA426) (Geobacillus kaustophilus HTA426); assay: as above

Q: How did the ATPase activity of the GkDnaC-GkDnaI complex (NADH-coupled assay) [1] turn out when “GkDnaI helicase loader (natural protein)” was run?
A: 18.1 µM/min

Q: And the unwinding efficiency (fold, against GkDnaC alone), gel shift assay of fork DNA unwinding [1]?
A: 0.15 fold

Q: GkDnaC K309A mutant (enzyme) was tested. Which stoichiometry N [2] did it give?
A: 6

Q: Which stoichiometry N [3] does the source give for “GkDnaC R420A mutant (arginine finger) (enzyme)” here?
A: 6

Q: “GkDnaC helicase, wild-type (replicative helicase of Geobacillus kaustophilus HTA426) (enzyme)” was tested. Which stoichiometry N [4] did it give?
A: 6

B1: GkDnaG primase, full-length wild-type (enzyme)
chain: MGHRIPEETIEAIRRGVDIVDVIGEYVQLKKQGRNYFGLCPFHGEKTPSFSVSPEKQIFHCFGCGAGGNAFTFLMDIEGIPFVEAAKRLAAKAGIDLSAYELDSRGSDGSRADEAKAMVEAHTLLKRFYHHLLVHTKEGQAALDYLQVRGWTKETIDRFEIGYAPDVPDAAVRLLESRSFPLVLMEKAGLLVKKEDGRYVDRFRNRIMFPIHDHRGETVGFSGRLLGDGQPKYMNSPETPIFRKGTLLYFFHEARVSIRKRQEALLVEGFADVISAVQAGVDYVVATMGTSLTEEQARILRRHAETVTICYDGDSAGTEAAWRAAEQLSAFGCRVKVALLPDGLDPDEYIRTCGADRFAEEIAAARPLMAFKMDRLRRGKNLQEEGDRLRYIEEALREISKLSSPVEKDYYMRQLADEFSLSLSALYEQLSRSKPEQPKPQVNDGGKPVRPALTKKLLPAFQNAERLLLAHMMRSRDVAFIVQEQVGGRFNIEEHRALAAYIYAFYEEGHEADPSALMSRLPGELRTLASELSLLLVADDVSDRELADCIRHVLNHPKWLMLKEKEQEKTEAERRKDFLTAARIAKEMIEMKKMLSSS
Q: For B1, which ATPase activity of the GkDnaC-GkDnaG complex (NADH-coupled assay) [1] is on record?
A: 79.5 µM/min

Q: And the unwinding efficiency (fold, against GkDnaC alone), gel shift assay of fork DNA unwinding [1]?
A: 1.45 fold

Q: And the unwinding velocity of the GkDnaC-GkDnaG complex (smTPM) [1]?
A: 7.44 bp/s
